For assay [1], the target named is T1, human Cadherin-11 expressed on 431-D-11 cells (human) (UniProt P55287).
T1 sequence: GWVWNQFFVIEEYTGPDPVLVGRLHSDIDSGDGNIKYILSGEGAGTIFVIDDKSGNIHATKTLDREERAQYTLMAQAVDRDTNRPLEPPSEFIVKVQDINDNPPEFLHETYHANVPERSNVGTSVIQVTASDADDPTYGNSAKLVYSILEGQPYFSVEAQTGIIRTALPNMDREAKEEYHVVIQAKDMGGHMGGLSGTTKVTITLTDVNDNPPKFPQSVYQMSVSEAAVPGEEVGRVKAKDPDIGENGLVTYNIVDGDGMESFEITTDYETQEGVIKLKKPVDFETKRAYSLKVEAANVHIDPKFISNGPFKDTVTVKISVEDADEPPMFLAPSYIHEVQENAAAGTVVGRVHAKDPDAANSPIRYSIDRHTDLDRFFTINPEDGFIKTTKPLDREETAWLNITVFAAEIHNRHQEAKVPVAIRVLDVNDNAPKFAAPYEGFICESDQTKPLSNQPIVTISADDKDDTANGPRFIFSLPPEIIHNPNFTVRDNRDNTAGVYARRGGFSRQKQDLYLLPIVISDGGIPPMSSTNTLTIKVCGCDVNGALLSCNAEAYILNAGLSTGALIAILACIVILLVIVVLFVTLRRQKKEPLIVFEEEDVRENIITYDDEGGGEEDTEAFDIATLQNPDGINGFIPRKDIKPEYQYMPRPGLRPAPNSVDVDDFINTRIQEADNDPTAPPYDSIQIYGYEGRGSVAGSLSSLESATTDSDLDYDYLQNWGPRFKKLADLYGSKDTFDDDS
Nature of the assay: cell-based or functional assay.

The target of assay [2] is T1, human Cadherin-11 expressed on 431-D-11 cells (human). Nature of the assay: cell-based or functional assay. This is another data set of the same source.
In assay [3] the target is T2, Cad-8 EC1 domain peptide (region overlapping the G1-G33 region of the Cad-11 EC1 domain) (UniProt P55286).
T2 sequence (peptide, conjugated to biotin, looked up): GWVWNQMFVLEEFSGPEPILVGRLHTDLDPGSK
The assay can be described thus: ELISA on EC1 domain peptides, against the Cad-11 peptide. A general note: In an ELISA, binding on a coated surface is turned into a signal by an enzyme label.

For assay [4], the target named is T3, Cad-11 EC1 domain peptide (first 33 amino acids of the EC1 domain), specificity ELISA of Example 5 (human).
T3 sequence (peptide): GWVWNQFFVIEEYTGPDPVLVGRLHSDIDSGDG
Nature of the assay: ELISA on EC1 domain peptides (first 33 amino acids).

In assay [1], “human Cad-11-EC1-5-Fc fusion protein (from UniProt P55287 54-609)” registered an inhibition of Cad-11 mediated cell aggregation of 100 µg/mL.
Take “human Cad-11-EC1-hIgG2-Fc1 fusion protein (Fc fusion)”: in assay [1], the inhibition of Cad-11 mediated cell aggregation amounted to 3 µg/mL and the inhibition of aggregation of Cad-11 expressing 431-D-11 cells at 40 min stood at 3 µg/mL.

B1: H1M1 anti-Cad-11 antibody (produced by hybridoma H1M1, ATCC accession number PTA-9699) (antibody, from a related filing, V domains shown)
VH: EVQLQQSGPELVKPGASVKISCKASGYSFTGYFMNWVKQSHGKSLEWIGRINPYTGDTFYNQKFKGKATLTVDKSSSTAHMELLSLSSEDSAVYYCGRLGSRYWYFDVWGAGTTVTVSS
VL: DVLMTQTPLSLPVSLGDQASISCRSSQSIIHSNGNTYLEWYLQKPGQSPKLLIYKVSNRFSGVPDRFTGSGSGTDFTLKISRVEAEDLGVYYCFQGSHVPWTFGGGTKLEIK
In assay [2], B1 had an inhibition of aggregation of Cad-11-expressing A-431-D cells (photographs, overnight culture) of 30 µg/mL. For the same molecule, the fold lower binding than to Cad-11 in assay [3] came to 365 fold. Also, in assay [4], the fold higher binding to Cad-11 than to any of the other cadherins tested is greater than 100 fold.

These data come from patent US20110008323A1.
